US20200223906A1 (Adimab, published 2020)
Numbering of substitutions follows the chain as printed.

B1: ADI-18980 (antibody, V domains shown)
VH: QVQLVQSGAEVKKPGESLKISCKGFGYSFNSYWIAWVRQMPGKGLECMGIIYPGDSDTRYSPSFQGQVTISVDKSITTAYLQWSSLKVSDTAMYYCAKSNVGNTGWNYWGQGTLVTVSS
VL: EIVLTQSPATLSLSPGERATLSCRASHSVATDLAWYQQKPGQAPRLLIYDASKRATDVPARFSGSGSGTDFTLTISSLEPEDVAVYYCQEVRNWPPCTFGQGTKVDIK
notes: full-length IgG; also called Antibody Number 328
B2: ADI-18981 (antibody, V domains shown)
VH: EVQLQESGSRLVKPSQTLSLTCSVSGGSLNAGGYLWSWIRQPPGKGLEWVGYIYPSGTTYYNPSLQSRISISQDRSRNQFSLSVASVTAADTAVYYCARCGNEYGEVHPFDIWGQGTTVTVSS
VL: EIVLTQSPGTLSLSPGERATLSCRGSPIVGNNYLAWYQQKPGQAPRLLIYAASIRATGIPDRFSGSGSGTDFTLTISRLEPEDFAVYYCQQYGSSPWTFGQGTKVDIK
notes: full-length IgG; also called Antibody Number 329
B3: ADI-18948 (antibody, V domains shown)
VH: EVQLLESGGGVVQSGRSLRLSCVASGFTFSDSGMHWVRQAPGKGLEWVAGLFYDGSNKQYADSVKGRFTISRDNSKSTLYLQMNSLRAEDTAVYYCARAPYDIWSGYCLDYWGQGTLVTVSS
VL: EIVLTQSPATLYMSPGERATLSCRASQSVNNNLAWYQQRPGQAPRLLIYGASTRATGIPARFSGSGSETEFTLTISSLQSEDFAVYHCQQYSIWPQTFGQGTKLEIK
notes: full-length IgG from yeast; also called Antibody Number 300; Ab # 300
B4: ADI-18955 (antibody, V domains shown)
VH: B3 VH with L5V, V23A, T28I, S32N, L51I, S77N, N84K
VL: B3 VL with E1D, V3Q, L4V, Y12S, L104V
notes: full-length IgG from yeast; also called Antibody Number 306; Ab # 306
B5: ADI-18968 (antibody, V domains shown)
VH: EVQLVESGPGLVKPSQTLSLTCTVSDVLISSGDYYWSWIRQSPGKGLEWLGYIYYTGKTKYNPSLESRITMSVDTSKNQFSLRLSSVTAADTAVYFCTRDLGYSTSSPSFYYGMDVWGQGTTVTVSS
VL: EIVLTQSPATLSLSPGERATLSCRASQSVGTYLAWYQQKPGQAPRLLIYDASYRVTGIPARFSASGSATDFTLTISSLEPEDFAVYFCQQRTNWPITFGQGTRLEIK
notes: full-length IgG from yeast
B6: ADI-18876 (antibody, V domains shown)
VH: QVQLQESGPGLVKPSQTLSLTCTVSGPSISSGDYYWTWIRQPPGKGLEWIGYIYNSGSTDYNPSLKSRITMSLDRSKNQFSLNLSSVTAADTAVYFCARDVGTLVLPTVAYYYGMDVWGQGTTVTVSS
VL: EIVLTQSPGTLSLSPGERATLSCRASESISSSYLAWYQQKPGQAPRLLIYDASSRATGIPDRFSGSGSGTDFTLTISSLEPEDFAVYYCQQYGSSPLVTFGPGTKVDIK
notes: full-length IgG from yeast
B7: ADI-18922 (antibody, V domains shown)
VH: QVQLQESGPGRVKPSETLSLTCSVADGSISSGHYYWGWVRQPPGKGLEWIATIHDSGATYYNPSLQSRVTISVDTSKNQFSLKVNSVTAADTAVYYCASRRGSGWFFDSWGQGTLVTVSS
VL: DIVLTQSPATLSVSPGERVTLSCRASHSVNYNLAWYQQKPGQAPRLLIYGSSTRATGLPARFSGSGSGTEFTLTISSLQSEDFAIYYCQQYNNWPPGGTFGQGTKVEIK
notes: full-length IgG from yeast; also called Antibody Number 276; Ab # 276

Each binder was assayed against RSV F protein of subtype B (18537) on recombinant mKate-RSV (respiratory syncytial virus subtype B …, UniProt P13843 26-574) (assay: cell-based or functional assay).

B1 and B2 cannot be ordered by “Neut IC50 subtype B” value: over 10 µg/mL for the first, over 10 µg/mL for the second.

Each binder was assayed against RSV F protein of subtype A (strain A2) on recombinant mKate-RSV virus (Respiratory syncytial virus subtype A …, UniProt P03420 26-574) (assay: cell-based or functional assay).

Going from B3 to B4, the “Neut IC50 (µg/ml) subtype A” value rises from 1.12 µg/mL to 1.93 µg/mL (1.7-fold).

First: B5
Second: B6
The “Neut IC50 (µg/ml) subtype A” value of the first is 25-fold higher: 0.909 µg/mL for the first, 0.037 µg/mL for the second.

In the case of B7, the “Neut IC50 (µg/ml) subtype A” value is reported as over 10 µg/mL.

These binders were tested against RSV F protein of subtype B (18537) on recombinant mKate-RSV virus (Respiratory syncytial virus subtype B …, UniProt P13843 26-574) (assay: cell-based or functional assay).

B3 and B4 are within 1.5-fold of each other in “Neut IC50 (µg/ml) subtype B” value: 4.35 µg/mL for the first, 3.12 µg/mL for the second.

Going from B5 to B6, the “Neut IC50 (µg/ml) subtype B” value falls from 0.541 µg/mL to 0.179 µg/mL (3-fold).

In the case of B7, the “Neut IC50 (µg/ml) subtype B” value is reported as 5.05 µg/mL.

What follows are binders tested against RSV F protein of subtype A (strain A2) on recombinant mKate-RSV (respiratory syncytial virus subtype A …, UniProt P03420 26-574) (assay: cell-based or functional assay).

Going from B1 to B2, the “Neut IC50 subtype A” value rises from 3.6 µg/mL to over 10 µg/mL.

What follows are binders tested against T1, RSV F ectodomain stabilized in the postfusion conformation (F ΔFP), subtype B (respiratory syncytial virus subtype B, UniProt P13843 26-109; P13843 147-524) (assay: BLI (Octet), IgG on AHQ sensor, 100 nM antigen).
T1 construct: extracellular domain; Trimer; also called Postfusion subtype B

B1 and B2 are within 1.5-fold of each other in Kd: 0.35 nM for the first, 0.28 nM for the second.

Each binder was assayed against T2, RSV F subtype B, furin-cleaved ectodomain stabilized in the postfusion conformation (F ΔFP) (Respiratory syncytial virus subtype B) (assay: BLI, IgG on AHQ sensor, 100 nM antigen).
T2 construct: extracellular domain; Trimeric soluble antigen; also called Postfusion subtype B

B3 and B4 are within 1.5-fold of each other in Kd: 0.247 nM for the first, 0.25 nM for the second.

First: B5
Second: B6
The Kd of the first is 1.7-fold higher: 0.305 nM for the first, 0.179 nM for the second.

B7 was tested, and the Kd was 0.287 nM.

The binders below were run against T3, RSV F subtype B, furin-cleaved ectodomain stabilized in the prefusion conformation (DS-Cav1) (Respiratory syncytial virus subtype B) (assay: BLI, IgG on AHQ sensor, 100 nM antigen).
T3 construct: extracellular domain; Trimeric soluble antigen; also called Prefusion subtype B

B3 and B4 are within 1.5-fold of each other in Kd: 2.1 nM for the first, 2.37 nM for the second.

Going from B5 to B6, the Kd falls from 0.602 nM to 0.316 nM (1.9-fold).

B7 showed a Kd of 5.27 nM.

What follows are binders tested against T4, RSV F subtype A, furin-cleaved ectodomain stabilized in the postfusion conformation (F ΔFP) (Respiratory syncytial virus subtype A, UniProt P03420 26-109; P03420 147-524) (assay: BLI, IgG on AHQ sensor, 100 nM antigen).
T4 construct: extracellular domain; Trimeric soluble antigen; also called Postfusion subtype A

B3 and B4 are within 1.5-fold of each other in Kd: 0.257 nM for the first, 0.256 nM for the second.

First: B5
Second: B6
The Kd of the first is 3.9-fold lower: 0.438 nM for the first, 1.71 nM for the second. The first binds more tightly here.

B7 showed a Kd of 0.322 nM.

Each binder was assayed against T5, RSV F subtype A, furin-cleaved ectodomain stabilized in the prefusion conformation (DS-Cav1) (Respiratory syncytial virus subtype A, UniProt P03420 26-524) (assay: BLI, IgG on AHQ sensor, 100 nM antigen).
T5 construct: extracellular domain; Trimeric soluble antigen; also called Prefusion subtype A

First: B3
Second: B4
The Kd of the first is 7.6-fold higher: 4.55 nM for the first, 0.599 nM for the second. The second binds more tightly here.

First: B5
Second: B6
The Kd of the first is 2.8-fold higher: 1.98 nM for the first, 0.707 nM for the second.

B7 gave a Kd of 3.47 nM.
